Target: T1, HLA-A*0201 molecules on TAP-deficient T2 cells (human)
T1 construct: Peptide-receptive class I molecule on T2 cells; also called HLA-A2.1; HLA-A2
Assay: T2 cell HLA-A*0201 stabilisation, 100 uM peptide, flow cytometry with mAb BB7.2; mean of 4 experiments ± SEM
Experimental: T2 cells were incubated with 100 μM of peptide in serum-free RPMI 1640 supplemented with 5 μg/ml of human β₂m (Fluka, Buchs, Germany) for 18 hrs at 37° C.

B1: ALK peptide p621-629 (SLTANMKEV) (peptide)
peptide: SLTANMKEV
notes: C-terminal portion of the protein; also called p621-29
FI (Fluorescence Index): 3.5 ratio (sample / irrelevant-peptide control)
